± gives the uncertainty stated by the source.
Experiment: protein stability index of a GFP-peptide fusion (yeast GPS) (PSI 1-4); higher = more stable; sorted into four equal gates, so the index is relative within each strain
Summary of the method: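 The protein stability index combines read frequencies across sorting gates, each weighted by its gate number and then summed. To obtain those frequencies, a pooled yeast library of GFP fusions to tiled 17-residue yeast protein peptides, on a plasmid also expressing Cherry, was grown to mid-log phase in leucine-free medium. The cells were sorted into four equal gates by GFP/Cherry ratio before plasmid amplification by PCR and Illumina sequencing.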

Sequence	protein stability index (doa10∆)	protein stability index (pdr5∆)	protein stability index (san1∆)	protein stability index (ubr1∆)
NENKVIIELPNEKFEIE [SRB4]	2.89 ± 0.077	2.86 ± 0.081	2.94 ± 0.055	2.8 ± 0.042
WGHPTRMLLNLCKSATT [BRR2]	1.47 ± 0.047	1.55 ± 0.046	1.75 ± 0.066	1.35 ± 0.046
AGIKTRKFVFNPPKPRK [CYT1]	3.06 ± 0.06	3.19 ± 0.074	3.03 ± 0.06	3.07 ± 0.063
CFPQYVNSKQGAINVAN [NNF1]	2.43 ± 0.29			3.02 ± 0.16
FTIDAKPPISDSVFSFG [YLR335W/NUP2]	3.13 ± 0.054	2.75 ± 0.047	2.73 ± 0.051	2.69 ± 0.042
KIDIIELQKSLSLEEVE [FAS1]	2.92 ± 0.14	2.62 ± 0.15	2.52 ± 0.077	2.79 ± 0.088
NAYGFIEWCSRCNDNLM [YJL039C/NUP192]	3 ± 0.079	2.54 ± 0.088	2.75 ± 0.083	2.24 ± 0.078
NVRSSVLQKVIEWAEHH [SKP1]	2.4 ± 0.096	2.91 ± 0.11	2.4 ± 0.085	2.03 ± 0.099
KRITQITIEPGVDVEVV [RPS20]	2.7 ± 0.089	1.78 ± 0.17	2.81 ± 0.15	2.6 ± 0.09
QIILDRFAPDNQVTDSS [SIR3]		2.93 ± 0.13	2.94 ± 0.14	3.11 ± 0.098
VSITDAPKIHILDPSTE [YMR129W/POM152]	1.56 ± 0.055	1.95 ± 0.056	1.53 ± 0.061	1.54 ± 0.061
KVFDTLTRFSHDADLEV [RPN1]	2.44 ± 0.073	2.31 ± 0.054	2.44 ± 0.063	2.67 ± 0.047
LMVFNDDTKNQDSMSKG [YGR119C/NUP57]	3.04 ± 0.08	3.46 ± 0.16	2.94 ± 0.18	3.05 ± 0.071
VPPIASPQQFLRAHTDD [PRE2]	2.02 ± 0.068	2.72 ± 0.063	2.17 ± 0.11	2.6 ± 0.087
KYVHVSEVGNCSGSGMG [FAS2]	2.88 ± 0.055	3.08 ± 0.058	2.92 ± 0.051	2.92 ± 0.041
YGTRPLVLPPVVTSSVA [SNF2]	2.04 ± 0.086	2.06 ± 0.071	1.76 ± 0.12	1.94 ± 0.051
YLMDSKNVRTRIKLATT [RRI1]	2.09 ± 0.08	2.07 ± 0.073	1.61 ± 0.099	1.99 ± 0.061
NKLGNDPSLNLKLLAKS [BRR2]	2.64 ± 0.062	2.56 ± 0.079	2.86 ± 0.07	2.55 ± 0.096
LSCVKNDTISEDILQGI [NUT1]	2.69 ± 0.067	2.35 ± 0.073	2.53 ± 0.11	3.17 ± 0.076
TKNLSILTSKVNAIKNE [DSN1]	1.66 ± 0.076	2.13 ± 0.056	2.39 ± 0.11	1.69 ± 0.06
SAARGLSLVYEIGGSDL [ECM29]	2.18 ± 0.058	1.94 ± 0.065	3.33 ± 0.067	1.73 ± 0.056
DGSKMLKRADYTAVDTA [RPN14]	3.58 ± 0.12	3.32 ± 0.11	3.53 ± 0.036	3.26 ± 0.079
RYENNDDDERVEYNLFT [BRN1]	3.17 ± 0.1	3.27 ± 0.087	3.07 ± 0.064	3.04 ± 0.043
KSAVSHAPAYHRSKKDQ [IRR1]	3.13 ± 0.16	2.79 ± 0.11		3.1 ± 0.069
SASVRALIENWAADSVS [FAS1]	2.46 ± 0.078	2.48 ± 0.094	2.59 ± 0.097	2.76 ± 0.091
NKIINWEISNPDFLSKY [NUT1]	2.06 ± 0.047	2.41 ± 0.045	2.11 ± 0.11	1.8 ± 0.05
FKKSKIDHINEESWEKV [SCL1]	2.78 ± 0.062	3.05 ± 0.067	2.84 ± 0.049	2.69 ± 0.039

Source: the supplement of paper PMC9732359
